Test results reported in paper PMC3708871.

T1: Recombinant SIVmac239 Nef core domain, residues 96–237
T1 chain: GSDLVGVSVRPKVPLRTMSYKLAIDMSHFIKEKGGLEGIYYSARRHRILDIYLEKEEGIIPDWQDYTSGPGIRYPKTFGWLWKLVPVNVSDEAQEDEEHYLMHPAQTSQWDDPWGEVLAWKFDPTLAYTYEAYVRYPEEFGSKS

B1: Peptide of the cytoplasmic domain of human tetherin, residues 1–21, C9S, biotinylated insertion of D14DIWK18 from rhesus tetherin into human tetherin peptide … (peptide)
chain: MASTSYDYSRVPMDDIWKEDGDKRCK
B2: Peptide of the cytoplasmic domain of rhesus macaque tetherin, residues 1–26, biotinylated D14A; D15A; I16A; W17A; K18A (peptide)
chain: MAPILYDYRKMPMAAAAAEDGDKRCK

Assays:
[1] = molecular target: Rhesus macaque tetherin (BST-2), allele rBST-2.1 (rhesus macaque); assay: co-IP; 293T co-transfected with Nef and tetherin constructs; lysates immunoprecipitated with anti-tetherin mAb 3H4 and protein A beads, blots for Nef and tetherin; band densities by ImageJ
[2] = molecular target: Peptide of the cytoplasmic domain of rhesus macaque tetherin, residues 1–26, biotinylated (rhesus macaque); assay: SPR; BIAcore 3000, 25°C, PBS with 5 mM DTT; biotinylated tetherin peptides captured (3,000 RU) on neutravidin-coated CM5 chip, Nef proteins flowed at 5 µl/min; equilibrium analysis, apparent Kd
Dynamin 2 fused to GFP = Dynamin 2 fused to GFP (UniProt P50570); assay: co-IP; 293T co-transfected with Nef constructs and Dyn2-GFP; lysates immunoprecipitated with a mAb to GFP, blots for Nef and GFP; band ratios
[3] = molecular target: Rhesus macaque tetherin (BST-2), allele rBST-2.1; assay: co-immunoprecipitation; conditions: 293T cells co-transfected; lysates immunoprecipitated with a monoclonal antibody to tetherin; parent: 1
SIVmac239 Nef, wild type = assay: co-immunoprecipitation; conditions: IP: α-BST2; parent: 0.13
[4] = molecular target: T1, Recombinant SIVmac239 Nef core domain, …; assay: SPR; conditions: chain shown with the change, Nef96–237 at about 650 µM (highest concentration point), peptide on chip, read off a plot

UniProt P50570, sequence (P50570 whole entry, the tested form may be a part): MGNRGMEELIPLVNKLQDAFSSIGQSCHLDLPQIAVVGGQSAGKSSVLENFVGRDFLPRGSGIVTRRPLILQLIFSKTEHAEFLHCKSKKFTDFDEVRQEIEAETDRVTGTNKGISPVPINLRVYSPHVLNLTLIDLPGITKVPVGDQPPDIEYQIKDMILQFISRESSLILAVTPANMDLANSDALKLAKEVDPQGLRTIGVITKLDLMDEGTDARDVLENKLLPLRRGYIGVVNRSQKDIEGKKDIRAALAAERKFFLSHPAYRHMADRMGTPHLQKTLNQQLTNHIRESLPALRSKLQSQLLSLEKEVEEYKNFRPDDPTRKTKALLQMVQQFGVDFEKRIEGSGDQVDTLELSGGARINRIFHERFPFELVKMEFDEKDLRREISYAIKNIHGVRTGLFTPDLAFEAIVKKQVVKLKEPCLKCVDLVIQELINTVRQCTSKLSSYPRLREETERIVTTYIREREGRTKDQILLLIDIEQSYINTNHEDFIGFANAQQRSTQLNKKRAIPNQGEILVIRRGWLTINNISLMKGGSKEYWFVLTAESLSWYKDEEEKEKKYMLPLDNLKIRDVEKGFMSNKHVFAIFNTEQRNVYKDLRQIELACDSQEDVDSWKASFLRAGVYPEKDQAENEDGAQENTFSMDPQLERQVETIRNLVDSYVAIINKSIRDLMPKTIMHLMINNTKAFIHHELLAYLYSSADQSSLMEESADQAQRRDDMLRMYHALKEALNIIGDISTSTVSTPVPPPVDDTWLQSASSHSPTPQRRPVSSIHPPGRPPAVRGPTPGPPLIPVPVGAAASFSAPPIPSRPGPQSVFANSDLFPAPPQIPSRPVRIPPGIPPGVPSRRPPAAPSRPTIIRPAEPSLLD

Molecule | BST2 binding (Nef/tetherin band intensity in IP) [1] | other results
SIVmac239 Nef with pair-wise alanine substitutions at positions 176–177 (natural protein) | 3.17 | 
SIVmac239 Nef with pair-wise alanine substitutions at positions 205–206 (natural protein) | 0.94 | 
SIVmac239 Nef with pair-wise alanine substitutions at positions 86–87 (natural protein) | 0.47 | 
Recombinant SIVmac239 Nef core domain, residues 96–237 (domain or fragment) |  | Kd [2]: 401 µM
SIVmac239 Nef, wild type (natural protein) | 1 | Dyn2 binding (Nef/dynamin 2 band intensity in IP) (Dynamin 2 fused to GFP): 1.1
SIVmac239 Nef with pair-wise alanine substitutions at positions 138–139 (natural protein) | 0.84 | 
SIVmac239 Nef with pair-wise alanine substitutions at positions 146–147 (natural protein) | 1.56 | 
SIVmac239 Nef, wild type M66A; N67A; T68A; P69A; W70A; R71A |  | ratio to parent [3]: 0.05
SIVmac239 Nef with pair-wise alanine substitutions at positions 160–161 (natural protein) | 1.64 | 
SIVmac239 Nef with pair-wise alanine substitutions at positions 209–210 (natural protein) | 1.4 | 
SIVmac239 Nef with pair-wise alanine substitutions at positions 106–107 (natural protein) | 0.82 | 
SIVmac239 Nef, wild type M66A; N67A; T68A; P69A; W70A; R71A; I117A; L174A; W175A; N181A; V182A |  | ratio to parent [3]: 0.07
SIVmac239 Nef with pair-wise alanine substitutions at positions 166–167 (natural protein) | 1.4 | 
SIVmac239 Nef with pair-wise alanine substitutions at positions 112–113 (natural protein) | 0.35 | 
SIVmac239 Nef with pair-wise alanine substitutions at positions 64–65 (natural protein) | 0.54 | 
SIVmac239 Nef with pair-wise alanine substitutions at positions 158–159 (natural protein) | 0.76 | 
SIVmac239 Nef with pair-wise alanine substitutions at positions 168–169 (natural protein) | 2.1 | 
SIVmac239 Nef with pair-wise alanine substitutions at positions 164–165 (natural protein) | 1.34 | 
SIVmac239 Nef with pair-wise alanine substitutions at positions 68–69 (natural protein) | 0.14 | 
Human tetherin (BST-2) (from UniProt Q10589) insertion of D14DIWK18 from rhesus tetherin into human tetherin (hDDIWK) |  | other: Nef/BST2 band intensity ratio (SIVmac239 Nef, wild type): 0.65
SIVmac239 Nef with pair-wise alanine substitutions at positions 74–75 (natural protein) | 0.71 | 
SIVmac239 Nef with pair-wise alanine substitutions at positions 116–117 (natural protein) | 0.16 | 
SIVmac239 Nef with pair-wise alanine substitutions at positions 88–89 (natural protein) | 0.93 | 
SIVmac239 Nef with pair-wise alanine substitutions at positions 174–175 (natural protein) | 0.52 | 
SIVmac239 Nef with pair-wise alanine substitutions at positions 5–6 (natural protein) | 0.18 | 

Molecule | BST2 binding (Nef/tetherin band intensity in IP) [1] | other results
SIVmac239 Nef with pair-wise alanine substitutions at positions 181–182 (natural protein) | 0.23 | 
SIVmac239 Nef with pair-wise alanine substitutions at positions 128–129 (natural protein) | 1.11 | 
SIVmac239 Nef with pair-wise alanine substitutions at positions 199–200 (natural protein) | 0.43 | 
SIVmac239 Nef with pair-wise alanine substitutions at positions 134–135 (natural protein) | 2.58 | 
SIVmac239 Nef with pair-wise alanine substitutions at positions 193–194 (natural protein) | 0.22 | 
SIVmac239 Nef with pair-wise alanine substitutions at positions 108–109 (natural protein) | 1.87 | 
SIVmac239 Nef with pair-wise alanine substitutions at positions 140–141 (natural protein) | 1.38 | 
SIVmac239 Nef with pair-wise alanine substitutions at positions 66–67 (natural protein) | 0.18 | 
SIVmac239 Nef with pair-wise alanine substitutions at positions 156–157 (natural protein) | 1.46 | 
SIVmac239 Nef with pair-wise alanine substitutions at positions 132–133 (natural protein) | 0.79 | 
SIVmac239 Nef with pair-wise alanine substitutions at positions 203–204 (natural protein) | 0.74 | 
SIVmac239 Nef with pair-wise alanine substitutions at positions 142–143 (natural protein) | 5.1 | 
SIVmac239 Nef with pair-wise alanine substitutions at positions 70–71 (natural protein) | 0.28 | 
SIVmac239 Nef with pair-wise alanine substitutions at positions 152–153 (natural protein) | 1.68 | 
SIVmac239 Nef with pair-wise alanine substitutions at positions 82–83 (natural protein) | 1.38 | 
SIVmac239 Nef with pair-wise alanine substitutions at positions 195–196 (natural protein) | 0.31 | 
SIVmac239 Nef with pair-wise alanine substitutions at positions 172–173 (natural protein) | 1.34 | 
SIVmac239 Nef with pair-wise alanine substitutions at positions 130–131 (natural protein) | 2.4 | 
SIVmac239 Nef with pair-wise alanine substitutions at positions 110–111 (natural protein) | 1.29 | 
SIVmac239 Nef with pair-wise alanine substitutions at positions 60–61 (natural protein) | 0.7 | 
SIVmac239 Nef G2A (myristoylation site mutant) (natural protein) | 0.16 | 
SIVmac239 Nef with pair-wise alanine substitutions at positions 170–171 (natural protein) | 2.61 | 
B1 |  | response [4]: 800 RU
B2 |  | response ([4]; parent: est. 1900): 1100 RU
